In test [1] the target is FcγRI (UniProt P12314). In words: Biacore; FcγR captured through anti-His antibody; response at end of injection normalised to the standard.
The target of another test is FcγRIIIa V158 (UniProt P08637). The test is described as above.
The target of test [2] is FcγRI. Described as above.
The target of another test is FcRn (UniProt P55899). In words: Biacore; FcRn directly immobilized; response at end of injection normalised to the standard.
For a further test, the target named is Flt3 receptor (human) (UniProt P36888). The test can be described thus: cell-based or functional assay.
Flt3 receptor (human), sequence (P36888 27-993): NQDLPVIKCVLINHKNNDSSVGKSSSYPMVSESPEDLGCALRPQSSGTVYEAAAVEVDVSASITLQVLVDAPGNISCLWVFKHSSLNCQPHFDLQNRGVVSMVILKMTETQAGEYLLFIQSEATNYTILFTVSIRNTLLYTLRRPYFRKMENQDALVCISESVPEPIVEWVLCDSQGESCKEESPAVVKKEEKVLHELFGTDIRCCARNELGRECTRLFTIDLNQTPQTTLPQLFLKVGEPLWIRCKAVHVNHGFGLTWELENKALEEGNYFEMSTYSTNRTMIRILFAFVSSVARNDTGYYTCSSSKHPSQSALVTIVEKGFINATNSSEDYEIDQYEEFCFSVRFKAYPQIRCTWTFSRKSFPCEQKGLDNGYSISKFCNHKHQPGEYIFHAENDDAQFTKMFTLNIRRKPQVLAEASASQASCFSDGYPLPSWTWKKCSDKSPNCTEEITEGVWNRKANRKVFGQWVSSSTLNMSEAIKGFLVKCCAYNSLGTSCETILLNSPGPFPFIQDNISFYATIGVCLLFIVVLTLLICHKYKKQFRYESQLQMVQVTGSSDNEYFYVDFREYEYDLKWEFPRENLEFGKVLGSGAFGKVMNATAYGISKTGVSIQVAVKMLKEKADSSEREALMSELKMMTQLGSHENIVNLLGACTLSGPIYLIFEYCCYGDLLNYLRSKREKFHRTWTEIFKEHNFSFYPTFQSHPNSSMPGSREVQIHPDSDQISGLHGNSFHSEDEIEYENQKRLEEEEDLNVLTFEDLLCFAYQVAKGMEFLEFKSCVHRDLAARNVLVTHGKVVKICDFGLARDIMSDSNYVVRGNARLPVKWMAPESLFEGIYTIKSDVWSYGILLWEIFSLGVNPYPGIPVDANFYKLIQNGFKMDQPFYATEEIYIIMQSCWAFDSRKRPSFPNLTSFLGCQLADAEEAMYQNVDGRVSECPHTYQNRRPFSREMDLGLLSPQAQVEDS

FcRn, sequence (P55899 24-297 limits assumed, form in doubt): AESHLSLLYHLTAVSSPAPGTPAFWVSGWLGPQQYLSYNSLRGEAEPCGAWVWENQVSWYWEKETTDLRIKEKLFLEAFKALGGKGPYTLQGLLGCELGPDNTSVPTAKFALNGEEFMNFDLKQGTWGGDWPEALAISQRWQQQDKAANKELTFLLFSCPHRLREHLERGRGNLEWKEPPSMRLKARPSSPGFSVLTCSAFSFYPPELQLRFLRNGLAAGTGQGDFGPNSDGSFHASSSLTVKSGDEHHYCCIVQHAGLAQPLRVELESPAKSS
FcγRIIIa V158, sequence (P08637 17-208 F176V limits assumed): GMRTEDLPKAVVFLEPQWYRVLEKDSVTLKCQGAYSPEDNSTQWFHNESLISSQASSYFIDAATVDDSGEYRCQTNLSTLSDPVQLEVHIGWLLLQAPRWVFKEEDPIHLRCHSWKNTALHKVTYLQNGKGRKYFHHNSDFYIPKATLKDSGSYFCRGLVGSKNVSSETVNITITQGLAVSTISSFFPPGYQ
FcγRI (UniProt P12314), sequence (P12314 16-288 limits assumed): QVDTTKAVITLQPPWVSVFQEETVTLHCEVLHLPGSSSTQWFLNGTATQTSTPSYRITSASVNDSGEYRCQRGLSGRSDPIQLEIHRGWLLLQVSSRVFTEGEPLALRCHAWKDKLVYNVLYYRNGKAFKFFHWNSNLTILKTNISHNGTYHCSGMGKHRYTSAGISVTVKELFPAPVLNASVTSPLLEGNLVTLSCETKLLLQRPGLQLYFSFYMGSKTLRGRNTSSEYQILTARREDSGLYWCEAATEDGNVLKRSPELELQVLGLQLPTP

For “anti-CD20 antibody (ocrelizumab variable domains) with IgG1 LALAPG constant region”, the relative binding level (%) at 10 ug/ml in the test with FcγRI [1] is 1.74%; with FcγRIIIa V158 it was 1.36%; in the test with FcγRI [2], -0.34%; in the test with FcRn, 95.9%.

Regarding “anti-CD20 antibody (ocrelizumab variable domains) with IgG1 NG constant region”, the relative binding level (%) at 10 ug/ml amounted to 4.5% with FcγRI [1], 2.12% with FcγRIIIa V158, 0.06% with FcγRI [2] and 86.7% with FcRn.

For “anti-CD20 antibody (ocrelizumab variable domains) with IgG4 SP constant region”, the relative binding level (%) at 10 ug/ml with FcγRI [1] came to 70.6%; with FcγRIIIa V158 it was 3.41%; with FcγRI [2] it was 14.8%; with FcRn, 66.5%.

For “gCDX-301 (from UniProt P49771 27-179) (ligand)”, in the test with Flt3 receptor (human), the EC50 potency, proliferation of OCI-AML5 cells (Cell Titer Glo, 7 days) amounted to 2.3 pM.

B1: anti-CD20 antibody (ocrelizumab variable domains) with IgG2 wildtype constant region (antibody, part only; not given: ocrelizumab variable domains, not shown: another chain or arm of the molecule)
constant: ASTKGPSVFPLAPCSRSTSESTAALGCLVKDYFPEPVTVSWNSGALTSGVHTFPAVLQSSGLYSLSSVVTVPSSNFGTQTYTCNVDHKPSNTKVDKTVERKCCVECPPCPAPPVAGPSVFLFPPKPKDTLMISRTPEVTCVVVDVSHEDPEVQFNWYVDGVEVHNAKTKPREEQFNSTFRVVSVLTVVHQDWLNGKEYKCKVSNKGLPAPIEKTISKTKGQPREPQVYTLPPSREEMTKNQVSLTCLVKGFYPSDIAVEWESNGQPENNYKTTPPMLDSDGSFFLYSKLTVDKSRWQQGNVFSCSVMHEALHNHYTQKSLSLSPGK
Consider B1, for which the relative binding level (%) at 10 ug/ml amounted to 2.43% with FcγRI [1], 3.85% with FcγRIIIa V158, 179% with FcγRI [2] and 99.4% with FcRn.
